In US20200277405A1, “COMPOSITION FOR ANTIBODY-DRUG CONJUGATE DIRECTED AGAINST TUMOR-CELL ASSOCIATED POLYSIALIC ACID” (Cornell University, priority 2019, published 2020):

Legend:
ST8SiaII KO SW2 cells = assay: Flow cytometry binding to ST8SiaII knockout cells; format: cell-based, human
From the text: FIGS. 8A-8C depict binding of polySia-specific mAb to ST8SiaII and ST8SiaIV knockout cell lines. […] Data are the geometric mean fluorescence intensity (MFI), with the values reported as the average of three replicates and the error represented as the standard deviation of the mean. […] In the ST8SiaII KO SW2 cells, 73% of the population (FL1-H-) binds mo735 below the level of the wild-type SW2 cells. […] In the ST8SiaIV KO SW2 cells, 68% of the population (FL1-H-) binds mo735 below the level of the wild-type SW2 cells.
CRISPR guide RNAs targeting ST8SiaII (crRNA1: […]; SEQ ID NO: 5) and ST8Sia4 (crRNA1: […]; SEQ ID NO: 6) were purchased from Genscript in the pLentiCRISPR v2 vector. Knockout cell lines were generated in SW2 cells using protocols described by Zhang and colleagues (Shalem et al., “Genome-Scale CRISPR-Cas9 Knockout Screening in Human Cells,” Science 343:84-7 (2014), which is hereby incorporated by reference in its entirety). Briefly, after lentiviral transduction, cells were maintained under selection with 1 μg/mL puromycin for at least 14 days prior to analysis by flow cytometry.
Cancer cells were trypsinized and collected with media, followed by three washes in PBS. […] Cells were washed three times, resuspended in 500 μL of 0.5% BSA in PBS, and analyzed on a BD FACSCalibur flow cytometer using Cell Quest Pro software (BD Biosciences).

SW2 cells = assay: Colocalization microscopy, SW2; format: cell-based, human; conditions: transferrin and LAMP-3 markers
Method: FIGS. 12A-12C depict colocalization of mo735 with markers that traffic to endolysosomal compartments. […] For LAMP-1 (right), confocal microscopic images were taken after labeling SH-SY5Y cells with ch735 or isotype antibody for 2 h. Following fixation and permeabilization, LAMP-1 antibody was applied and detected with anti-rabbit AF647 secondary. Anti-human IgG AF488 was used to detect ch735 or isotype antibody. […] Cross-sectional fluorescence profiles are shown at right with normalized pixel intensity for selected cells (marked with box in left confocal panels) versus distance across the cell for representative cross sections (marked with bar in right confocal panels).
SH—SY5Y or SW2 cells were plated at 20,000 cells/cm^2 on poly-L-lysine coated 35 mm glass bottom dishes and adhered overnight. To remove polySia, cells were treated as described above. To measure receptor-antibody internalization, cells were incubated with 150 nM AF488 labeled ch735, human IgG isotype control (ThermoFisher Scientific), mo735, or mouse IgG isotype control (anti-MBP mAb, NEB) and 100 nM AF647 transferrin or AF647 anti-LAMP-3 antibody (Santa Cruz) for 1 h. Cells were washed and then fixed as described above. […] The fluorescence intensity of the plot profile was analyzed using FIJI software. Fluorescence intensity was normalized to the maximum value for each channel.

[1] = previous SPR and ITC experiments; cited from earlier work
cultured neurons = conditions: unconjugated antibody; cited from earlier work
polysialylated NCAM = assay: Glycoprotein array specificity profiling; format: binding, chicken
Method: (§1) FIGS. 2A-2D depict binding specificity and affinity of the ch735 antibody. […] ELISA signals (Abs370) were obtained with anti-human IgG secondary antibodies. […] Antibodies were assayed at 1 μg/mL and detected with anti-human IgG secondary antibodies. […] Antibodies were assayed at 10 μg/mL and detected with anti-mouse IgG secondary antibodies.
as §1, with “3A-3D” for “2A-2D”, “mo735” for “the ch735”, “anti-mouse” for “anti-human”
Specificity of mo735 and ch735 was determined using printed glycan arrays 5.3 and 5.4 at the CFG. Both antibodies were analyzed at 10 μg/mL with 5 μg/mL of anti-mouse or anti-human Alexa-Fluor 647 (AF647)-conjugated secondary, respectively. Specificity of mo735 (1 μg/mL) and ch735 (10 μg/mL) was also assessed on a custom glycoprotein array that contained ˜40-50 glycoproteins including chicken brain NCAM and endoN-treated chicken brain NCAM.

B1: mo735: well-known mouse-derived IgG2a monoclonal antibody 735 targeting polysialic acid (antibody, V domains shown)
VH: QIQLQQSGPELVRPGASVKISCKASGYTFTDYYIHWVKQRPGEGLEWIGWIYPGSGNTKYNEKFKGKATLTVDTSSSTAYMQLSSLTSEDSAVYFCARGGKFAMDYWGQGTSVTVSS
VL: DVVMTQTPLSLPVSLGDQASISCRSSQSLVHSNGNTYLYWYLQKPGQSPKPLIYRVSNRFSGVPDRFSGSGSGTDFTLKISRVEAEDLGVYFCFQGTHVPYTFGGGTRLEIK
- population (FL1-H-) binding below the level of wild-type SW2 cells (ST8SiaII KO SW2 cells): 73%
- compartments of accumulation after internalization (confocal) (SW2 cells): compartmentalized in early and recycling endosomes
- preferred polySia chain length [1]: 8-11 sialic acid residues
- complement-dependent cytotoxicity (CDC) (cultured neurons): only limited complement-dependent cytotoxicity (CDC)

B2: ch735: chimeric human IgG1 polySia-specific mAb made by swapping variable regions of mouse mAb 735 (antibody, V domains shown)
VH: B1 VH
VL: B1 VL
- glycoprotein array binding (polysialylated NCAM; array of ~50 glycoproteins): strong preference for polysialylated NCAM
- signal towards any other glycomolecules (polysialylated NCAM; microarrays, including endoN-treated NCAM spotted on the glycoprotein array): no significant signal
